Measurements published in patent US20080050378A1 (ONCOTHERAPY SCIENCE, published 2008).

T1: EYFP-fused KIF11 (EYFP-KIF11) (human, UniProt P52732 1-1056)
T1 construct: Expressed in COS-7 cells; not shown: EYFP from pEYFP-N1 vector
T1 sequence: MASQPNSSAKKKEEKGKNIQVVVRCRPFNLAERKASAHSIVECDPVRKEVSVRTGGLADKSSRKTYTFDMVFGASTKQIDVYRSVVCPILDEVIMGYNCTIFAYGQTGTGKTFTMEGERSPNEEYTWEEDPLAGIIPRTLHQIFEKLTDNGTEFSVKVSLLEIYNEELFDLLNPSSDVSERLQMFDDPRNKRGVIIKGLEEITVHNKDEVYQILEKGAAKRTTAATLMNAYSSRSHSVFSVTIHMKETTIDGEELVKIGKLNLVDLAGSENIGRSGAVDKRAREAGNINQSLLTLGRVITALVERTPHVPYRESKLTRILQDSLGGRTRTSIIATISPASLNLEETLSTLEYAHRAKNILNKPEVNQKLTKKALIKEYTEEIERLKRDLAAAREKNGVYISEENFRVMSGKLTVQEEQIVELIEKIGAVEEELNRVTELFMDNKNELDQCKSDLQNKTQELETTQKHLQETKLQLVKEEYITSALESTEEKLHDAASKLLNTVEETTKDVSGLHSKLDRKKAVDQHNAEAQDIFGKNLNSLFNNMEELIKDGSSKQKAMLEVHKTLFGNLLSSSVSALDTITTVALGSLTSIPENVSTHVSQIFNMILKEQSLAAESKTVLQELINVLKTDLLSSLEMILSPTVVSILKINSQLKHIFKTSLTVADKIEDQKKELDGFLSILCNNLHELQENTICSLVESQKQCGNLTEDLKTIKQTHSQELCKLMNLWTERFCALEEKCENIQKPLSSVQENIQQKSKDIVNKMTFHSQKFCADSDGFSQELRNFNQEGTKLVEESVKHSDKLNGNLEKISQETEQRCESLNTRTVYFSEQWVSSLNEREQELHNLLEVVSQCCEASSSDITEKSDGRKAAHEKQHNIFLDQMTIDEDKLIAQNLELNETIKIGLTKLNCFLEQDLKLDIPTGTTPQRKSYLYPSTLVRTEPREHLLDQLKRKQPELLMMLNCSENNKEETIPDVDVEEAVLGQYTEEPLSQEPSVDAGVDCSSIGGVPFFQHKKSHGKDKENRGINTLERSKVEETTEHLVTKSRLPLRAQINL

B1: endogenous KIF11 (kinesin family member 11) (other)
chain: T1 sequence
notes: Endogenous protein in cell extracts; GenBank NM-004523 printed for the gene; also called EG5
B2: KOC1DEL2 (KOC1 deletion mutant 2; 2xRRM+2xKH, N-terminal FLAG, C-terminal HA) (other)
chain: MNKLYIGNLSENAAPSDLESIFKDAKIPVSGPFLVKTGYAFVDCPDESWALKAIEALSGKIELHGKPIEVEHSVPKRQRIRKLQIRNIPPHLQWEVLDSLLVQYGVVESCEQVNTDSETAVVNVTYSSKDQARQALDKLNGFQLENFTLKVAYIPDEMAAQQNPLQQPRGRRGLGQRGSSRQGSPGSVSKQKPCDLPLRLLVPTQFVGAIIGKEGATIRNITKQTQSKIDVHRKENAGAAEKSITILSTPEGTSAACKSILEIMHKEAQDIKFTEEIPLKILAHNNFVGRLIGKEGRNLKKIEQDTDTKITISPLQELTLYNPERTITVKGNVETCAKAEEEIMKKIRESYENDIASMNLQAHLIPGLNLNALGLFPPTSGMPPPTSGPPSAMTPPYPQFEQSETE
notes: Lacks the C-terminal two KH domains; not shown: N-terminal FLAG tag; C-terminal HA tag
B3: FLAG- and HA-tagged KOC1 (pCAGGS-n3FH-KOC1; NH2-terminal FLAG, COOH-terminal HA) (other)
chain: MNKLYIGNLSENAAPSDLESIFKDAKIPVSGPFLVKTGYAFVDCPDESWALKAIEALSGKIELHGKPIEVEHSVPKRQRIRKLQIRNIPPHLQWEVLDSLLVQYGVVESCEQVNTDSETAVVNVTYSSKDQARQALDKLNGFQLENFTLKVAYIPDEMAAQQNPLQQPRGRRGLGQRGSSRQGSPGSVSKQKPCDLPLRLLVPTQFVGAIIGKEGATIRNITKQTQSKIDVHRKENAGAAEKSITILSTPEGTSAACKSILEIMHKEAQDIKFTEEIPLKILAHNNFVGRLIGKEGRNLKKIEQDTDTKITISPLQELTLYNPERTITVKGNVETCAKAEEEIMKKIRESYENDIASMNLQAHLIPGLNLNALGLFPPTSGMPPPTSGPPSAMTPPYPQFEQSETETVHLFIPALSVGAIIGKQGQHIKQLSRFAGASIKIAPAEAPDAKVRMVIITGPPEAQFKAQGRIYGKIKEENFVSPKEEVKLEAHIRVPSFAAGRVIGKGGKTVNELQNLSSAEVVVPRDQTPDENDQVVVKITGHFYACQVAQRKIQEILTQVKQHQQQKALQSGPPQSRRK
notes: also called pCAGGS-FLAG-tagged-KOC1; full length KOC1 construct; not shown: N-terminal FLAG tag; C-terminal HA tag
B4: endogenous KOC1 (KH domain containing protein over-expressed in cancer) (other)
chain: B3 chain
notes: Endogenous protein in cell extracts; GenBank NM-006547 printed for the gene; also called IMP-3
B5: ECFP-fused KOC1 (ECFP-KOC1) (other)
chain: B3 chain
notes: Expressed in COS-7 cells; not shown: ECFP from pECFP-N1 vector
B6: KOC1DEL3 (KOC1 deletion mutant 3; 2xRRM without KH, N-terminal FLAG, C-terminal HA) (other)
chain: MNKLYIGNLSENAAPSDLESIFKDAKIPVSGPFLVKTGYAFVDCPDESWALKAIEALSGKIELHGKPIEVEHSVPKRQRIRKLQIRNIPPHLQWEVLDSLLVQYGVVESCEQVNTDSETAVVNVTYSSKDQARQALDKLNGFQLENFTLKVAYIPDEMAAQQNPLQQPRGRRGLGQRGSSRQGSPGSVSKQKPCDLP
notes: Contains the two RRMs and lacks the four KH domains; also called the RRM domains; not shown: N-terminal FLAG tag; C-terminal HA tag

Columns and labels:
[1] = target: dynactin 1 (DCTN1; p150, glued homolog, Drosophila), endogenous (human, UniProt Q14203 1-1278, limits assumed); experiment: immunoprecipitation with anti-KIF11 polyclonal and anti-DCTN1 monoclonal antibody; 150-kDa partner first identified by MALDI-TOF from LC319 lysate
Sequence of dynactin 1 (DCTN1; p150, glued homolog, Drosophila), endogenous (Q14203 whole entry): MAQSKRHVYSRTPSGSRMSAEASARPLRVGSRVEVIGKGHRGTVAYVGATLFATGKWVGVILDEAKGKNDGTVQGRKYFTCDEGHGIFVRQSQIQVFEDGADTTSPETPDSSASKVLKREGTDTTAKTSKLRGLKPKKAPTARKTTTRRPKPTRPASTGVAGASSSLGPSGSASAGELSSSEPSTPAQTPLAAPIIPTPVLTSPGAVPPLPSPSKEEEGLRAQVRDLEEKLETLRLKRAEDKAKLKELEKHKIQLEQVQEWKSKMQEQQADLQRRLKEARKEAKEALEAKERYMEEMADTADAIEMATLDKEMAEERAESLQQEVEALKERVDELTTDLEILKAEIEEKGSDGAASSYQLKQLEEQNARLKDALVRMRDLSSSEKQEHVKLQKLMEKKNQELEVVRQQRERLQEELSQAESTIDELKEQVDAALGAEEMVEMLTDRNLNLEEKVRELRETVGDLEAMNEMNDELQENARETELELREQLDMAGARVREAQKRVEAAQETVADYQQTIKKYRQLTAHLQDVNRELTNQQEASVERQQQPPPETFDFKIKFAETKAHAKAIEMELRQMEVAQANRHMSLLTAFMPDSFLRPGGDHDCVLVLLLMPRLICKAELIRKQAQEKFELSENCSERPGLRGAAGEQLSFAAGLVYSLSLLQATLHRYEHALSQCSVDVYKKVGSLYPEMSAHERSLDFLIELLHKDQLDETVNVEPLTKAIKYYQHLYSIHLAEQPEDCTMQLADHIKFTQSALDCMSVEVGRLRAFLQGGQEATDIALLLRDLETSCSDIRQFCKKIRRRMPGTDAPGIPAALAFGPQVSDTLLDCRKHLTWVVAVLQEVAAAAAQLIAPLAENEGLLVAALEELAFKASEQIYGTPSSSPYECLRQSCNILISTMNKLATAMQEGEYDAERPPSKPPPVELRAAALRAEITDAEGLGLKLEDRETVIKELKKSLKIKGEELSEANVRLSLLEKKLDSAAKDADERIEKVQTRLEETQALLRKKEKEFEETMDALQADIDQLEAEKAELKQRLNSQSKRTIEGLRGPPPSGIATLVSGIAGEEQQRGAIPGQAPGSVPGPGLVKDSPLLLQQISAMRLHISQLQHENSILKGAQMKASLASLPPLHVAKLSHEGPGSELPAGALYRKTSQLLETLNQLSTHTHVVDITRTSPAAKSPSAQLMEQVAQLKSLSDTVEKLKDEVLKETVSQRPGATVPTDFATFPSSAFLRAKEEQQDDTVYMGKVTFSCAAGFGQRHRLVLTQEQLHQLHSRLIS

[2] = target: B1; experiment: immunoprecipitation from transfected A549 cells
[3] = target: B1; experiment: anti-Flag and anti-HA immunoprecipitation from transfected LC319 cells, silver stain, MALDI-TOF
Procedure: Cells were extracted in IP-buffer (0.5% NP-40, 50 mM Tris-HCl, 150 mM NaCl, and protease inhibitor) for 30 min on ice. Extracts were centrifuged at 14,000 rpm for 15 min, and supernatants were subjected to immunoprecipitation using anti-Flag M2 agarose (Sigma-Aldrich) and anti-HA beads (Sigma-Aldrich) for 1-2 hours. The beads were washed six times with IP-buffer, and protein was eluted by boiling the beads in Laemmli sample buffer after removing the final wash fraction. The eluted protein was resolved by SDS-PAGE and stained with silver staining. A 125 kDa-band was extracted by gel extraction, and used for mass spectrometric sequencing using MALDI-TOF mass spectrometry.

[4] = target: B1; experiment: reciprocal immunoprecipitation with anti-KOC1 and anti-KIF11 polyclonal antibodies, western blot
[5] = target: T1, EYFP-fused KIF11 (EYFP-KIF11); experiment: live-cell fluorescence microscopy of co-transfected COS-7 cells (co-localised particles)
[6] = target: B1; experiment: immunoprecipitation from transfected LC319 cells

Binder: B1
binding result [1]: binds

Binder: B2
binding result [2]: binds

Binder: B3
binding result [3]: binds

Binder: B4
binding result [4]: binds

Binder: B5
binding result [5]: binds

Binder: B6
binding result [6]: binds
